Test results as given in patent publication US20160272683A1 (Novo Nordisk, published 2016).
Blank lines part the entries; values can stand above or below the binder they belong to. Numbered stars: 1 amine (or outer) side, 2 acyl side, 3 side chain; on linkers, the order of the positions; unused ones are H or OH. Side chains are listed from the residue outwards. Ends that are not written are not given here. * marks the point of attachment. C20 diacid = O=C(O)CCCCCCCCCCCCCCCCCCC(=O)*; C18 diacid = O=C(O)CCCCCCCCCCCCCCCCC(=O)*; γGlu = O=C(O)[C@H](CCC(=O)[*:2])N[*:1]

Molecular target: T1, human amylin receptor (human calcitonin receptor + human RAMP3) (human) (UniProt P30988)
T1 sequence (looked up) 1: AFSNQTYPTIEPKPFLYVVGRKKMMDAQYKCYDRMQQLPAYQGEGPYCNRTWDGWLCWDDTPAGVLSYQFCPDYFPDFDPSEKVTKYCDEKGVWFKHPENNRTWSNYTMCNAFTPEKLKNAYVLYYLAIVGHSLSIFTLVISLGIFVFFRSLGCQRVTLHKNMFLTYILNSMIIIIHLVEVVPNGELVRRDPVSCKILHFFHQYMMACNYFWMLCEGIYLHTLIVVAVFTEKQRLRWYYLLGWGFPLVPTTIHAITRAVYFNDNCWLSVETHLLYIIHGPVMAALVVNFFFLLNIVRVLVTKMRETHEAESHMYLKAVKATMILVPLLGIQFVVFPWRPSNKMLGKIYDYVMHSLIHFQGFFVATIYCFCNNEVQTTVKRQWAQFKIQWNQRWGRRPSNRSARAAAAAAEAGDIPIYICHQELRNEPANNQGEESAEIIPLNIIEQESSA
T1 sequence (looked up) 2: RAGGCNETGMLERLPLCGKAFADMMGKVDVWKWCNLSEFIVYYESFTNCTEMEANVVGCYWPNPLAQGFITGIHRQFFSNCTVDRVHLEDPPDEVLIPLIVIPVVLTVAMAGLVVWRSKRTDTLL
Experiment: whole-cell competition vs 125I-rat amylin (Assay Va)

Binder: {C18 diacid-γGlu}-ASELTTAVLGRLSAELHELATLPRTETGTGTP-NH2 [[N-terminal(C18 diacid-gGlu), des1, 6T, 9V, 30T, 31G, 32T]mimylin]
IC50: 2.15 nM

B2: [N-terminal(C18 diacid-gGlu), des1, 5V, 9V, 10V, 20V, 30S, 31G]mimylin (peptide)
peptide: {C18 diacid-γGlu}-ASEVSTAVVGRLSAELHEVATLPRTETGSGSP-NH2
SMILES: CC(C)C[C@H](NC(=O)[C@H](CCCNC(=N)N)NC(=O)CNC(=O)[C@@H](NC(=O)[C@@H](NC(=O)[C@H](C)NC(=O)[C@@H](NC(=O)[C@H](CO)NC(=O)[C@@H](NC(=O)[C@H](CCC(=O)O)NC(=O)[C@H](CO)NC(=O)[C@H](C)NC(=O)CC[C@H](NC(=O)CCCCCCCCCCCCCCCCC(=O)O)C(=O)O)C(C)C)[C@@H](C)O)C(C)C)C(C)C)C(=O)N[C@@H](CO)C(=O)N[C@@H](C)C(=O)N[C@@H](CCC(=O)O)C(=O)N[C@@H](CC(C)C)C(=O)N[C@@H](Cc1c[nH]cn1)C(=O)N[C@@H](CCC(=O)O)C(=O)N[C@H](C(=O)N[C@@H](C)C(=O)N[C@H](C(=O)N[C@@H](CC(C)C)C(=O)N1CCC[C@H]1C(=O)N[C@@H](CCCNC(=N)N)C(=O)N[C@H](C(=O)N[C@@H](CCC(=O)O)C(=O)N[C@H](C(=O)NCC(=O)N[C@@H](CO)C(=O)NCC(=O)N[C@@H](CO)C(=O)N1CCC[C@H]1C(N)=O)[C@@H](C)O)[C@@H](C)O)[C@@H](C)O)C(C)C
IC50: 1.65 nM

B3: [N-terminal(C20 diacid-gGlu), des1, 12H, 25H, 30T, 31G, 32T]mimylin (peptide)
peptide: {C20 diacid-γGlu}-ASELSTAALGHLSAELHELATLPHTETGTGTP-NH2
SMILES: CC(C)C[C@H](NC(=O)[C@H](C)NC(=O)[C@H](C)NC(=O)[C@@H](NC(=O)[C@H](CO)NC(=O)[C@H](CC(C)C)NC(=O)[C@H](CCC(=O)O)NC(=O)[C@H](CO)NC(=O)[C@H](C)NC(=O)CC[C@H](NC(=O)CCCCCCCCCCCCCCCCCCC(=O)O)C(=O)O)[C@@H](C)O)C(=O)NCC(=O)N[C@@H](Cc1c[nH]cn1)C(=O)N[C@@H](CC(C)C)C(=O)N[C@@H](CO)C(=O)N[C@@H](C)C(=O)N[C@@H](CCC(=O)O)C(=O)N[C@@H](CC(C)C)C(=O)N[C@@H](Cc1c[nH]cn1)C(=O)N[C@@H](CCC(=O)O)C(=O)N[C@@H](CC(C)C)C(=O)N[C@@H](C)C(=O)N[C@H](C(=O)N[C@@H](CC(C)C)C(=O)N1CCC[C@H]1C(=O)N[C@@H](Cc1c[nH]cn1)C(=O)N[C@H](C(=O)N[C@@H](CCC(=O)O)C(=O)N[C@H](C(=O)NCC(=O)N[C@H](C(=O)NCC(=O)N[C@H](C(=O)N1CCC[C@H]1C(N)=O)[C@@H](C)O)[C@@H](C)O)[C@@H](C)O)[C@@H](C)O)[C@@H](C)O
IC50: 1.51 nM

B5: [N-terminal(C18 diacid-gGlu), des1, 5V, 9V, 10V, 30S, 31G]mimylin (peptide)
peptide: {C18 diacid-γGlu}-ASEVSTAVVGRLSAELHELATLPRTETGSGSP-NH2
SMILES: CC(C)C[C@H](NC(=O)[C@H](CCC(=O)O)NC(=O)[C@H](Cc1c[nH]cn1)NC(=O)[C@H](CC(C)C)NC(=O)[C@H](CCC(=O)O)NC(=O)[C@H](C)NC(=O)[C@H](CO)NC(=O)[C@H](CC(C)C)NC(=O)[C@H](CCCNC(=N)N)NC(=O)CNC(=O)[C@@H](NC(=O)[C@@H](NC(=O)[C@H](C)NC(=O)[C@@H](NC(=O)[C@H](CO)NC(=O)[C@@H](NC(=O)[C@H](CCC(=O)O)NC(=O)[C@H](CO)NC(=O)[C@H](C)NC(=O)CC[C@H](NC(=O)CCCCCCCCCCCCCCCCC(=O)O)C(=O)O)C(C)C)[C@@H](C)O)C(C)C)C(C)C)C(=O)N[C@@H](C)C(=O)N[C@H](C(=O)N[C@@H](CC(C)C)C(=O)N1CCC[C@H]1C(=O)N[C@@H](CCCNC(=N)N)C(=O)N[C@H](C(=O)N[C@@H](CCC(=O)O)C(=O)N[C@H](C(=O)NCC(=O)N[C@@H](CO)C(=O)NCC(=O)N[C@@H](CO)C(=O)N1CCC[C@H]1C(N)=O)[C@@H](C)O)[C@@H](C)O)[C@@H](C)O
IC50: 1.17 nM

B6: [des1, 4G, 15Q, 21Q, 23Y, 30S, 31K(C20 diacid-gGlu), 32T, 33Y]mimylin (peptide)
peptide: ASGLSTAALGRLSQELHELQTYPRTETGSK([γGlu-C20 diacid])TY-NH2
modifications: N-terminus assumed
SMILES: CC(C)C[C@H](NC(=O)CNC(=O)[C@H](CO)NC(=O)[C@H](C)N)C(=O)N[C@@H](CO)C(=O)N[C@H](C(=O)N[C@@H](C)C(=O)N[C@@H](C)C(=O)N[C@@H](CC(C)C)C(=O)NCC(=O)N[C@@H](CCCNC(=N)N)C(=O)N[C@@H](CC(C)C)C(=O)N[C@@H](CO)C(=O)N[C@@H](CCC(N)=O)C(=O)N[C@@H](CCC(=O)O)C(=O)N[C@@H](CC(C)C)C(=O)N[C@@H](Cc1c[nH]cn1)C(=O)N[C@@H](CCC(=O)O)C(=O)N[C@@H](CC(C)C)C(=O)N[C@@H](CCC(N)=O)C(=O)N[C@H](C(=O)N[C@@H](Cc1ccc(O)cc1)C(=O)N1CCC[C@H]1C(=O)N[C@@H](CCCNC(=N)N)C(=O)N[C@H](C(=O)N[C@@H](CCC(=O)O)C(=O)N[C@H](C(=O)NCC(=O)N[C@@H](CO)C(=O)N[C@@H](CCCCNC(=O)CC[C@H](NC(=O)CCCCCCCCCCCCCCCCCCC(=O)O)C(=O)O)C(=O)N[C@H](C(=O)N[C@@H](Cc1ccc(O)cc1)C(N)=O)[C@@H](C)O)[C@@H](C)O)[C@@H](C)O)[C@@H](C)O)[C@@H](C)O
IC50: 5.45 nM

Binder: {C18 diacid-γGlu}-ASELTTAVLGRLEAELHELTTLPRTETGTGTP-NH2 [[N-terminal(C18 diacid-gGlu), des1, 6T, 9V, 14E, 21T, 30T, 31G, 32T]mimylin]
IC50: 19.7 nM

Now those with a lower IC50, led by results:

IC50: 0.652 nM
Binder: {C18 diacid-γGlu}-ASELTTAVLGRLSAELHELATLPRTETGSGTP-NH2 [[N-terminal(C18 diacid-gGlu), des1, 6T, 9V, 30S, 31G, 32T]mimylin]

IC50: 0.588 nM
B7: [N-terminal(C20 diacid-gGlu), des1, 12K, 23Y, 25K, 30S, 31G, 33Y]mimylin (peptide)
peptide: {C20 diacid-γGlu}-ASELSTAALGKLSAELHELATYPKTETGSGSY-NH2
SMILES: CC(C)C[C@H](NC(=O)[C@H](C)NC(=O)[C@H](C)NC(=O)[C@@H](NC(=O)[C@H](CO)NC(=O)[C@H](CC(C)C)NC(=O)[C@H](CCC(=O)O)NC(=O)[C@H](CO)NC(=O)[C@H](C)NC(=O)CC[C@H](NC(=O)CCCCCCCCCCCCCCCCCCC(=O)O)C(=O)O)[C@@H](C)O)C(=O)NCC(=O)N[C@@H](CCCCN)C(=O)N[C@@H](CC(C)C)C(=O)N[C@@H](CO)C(=O)N[C@@H](C)C(=O)N[C@@H](CCC(=O)O)C(=O)N[C@@H](CC(C)C)C(=O)N[C@@H](Cc1c[nH]cn1)C(=O)N[C@@H](CCC(=O)O)C(=O)N[C@@H](CC(C)C)C(=O)N[C@@H](C)C(=O)N[C@H](C(=O)N[C@@H](Cc1ccc(O)cc1)C(=O)N1CCC[C@H]1C(=O)N[C@@H](CCCCN)C(=O)N[C@H](C(=O)N[C@@H](CCC(=O)O)C(=O)N[C@H](C(=O)NCC(=O)N[C@@H](CO)C(=O)NCC(=O)N[C@@H](CO)C(=O)N[C@@H](Cc1ccc(O)cc1)C(N)=O)[C@@H](C)O)[C@@H](C)O)[C@@H](C)O

IC50: 0.222 nM
B4: [N-terminal(C20 diacid), des1, 4G, 15Q, 21Q, 23Y, 30S, 31G, 32T, 33Y]mimylin (peptide)
peptide: {C20 diacid}-ASGLSTAALGRLSQELHELQTYPRTETGSGTY-NH2
SMILES: CC(C)C[C@H](NC(=O)CNC(=O)[C@H](CO)NC(=O)[C@H](C)NC(=O)CCCCCCCCCCCCCCCCCCC(=O)O)C(=O)N[C@@H](CO)C(=O)N[C@H](C(=O)N[C@@H](C)C(=O)N[C@@H](C)C(=O)N[C@@H](CC(C)C)C(=O)NCC(=O)N[C@@H](CCCNC(=N)N)C(=O)N[C@@H](CC(C)C)C(=O)N[C@@H](CO)C(=O)N[C@@H](CCC(N)=O)C(=O)N[C@@H](CCC(=O)O)C(=O)N[C@@H](CC(C)C)C(=O)N[C@@H](Cc1c[nH]cn1)C(=O)N[C@@H](CCC(=O)O)C(=O)N[C@@H](CC(C)C)C(=O)N[C@@H](CCC(N)=O)C(=O)N[C@H](C(=O)N[C@@H](Cc1ccc(O)cc1)C(=O)N1CCC[C@H]1C(=O)N[C@@H](CCCNC(=N)N)C(=O)N[C@H](C(=O)N[C@@H](CCC(=O)O)C(=O)N[C@H](C(=O)NCC(=O)N[C@@H](CO)C(=O)NCC(=O)N[C@H](C(=O)N[C@@H](Cc1ccc(O)cc1)C(N)=O)[C@@H](C)O)[C@@H](C)O)[C@@H](C)O)[C@@H](C)O)[C@@H](C)O

IC50: 0.186 nM
B1: [N-terminal(C20 diacid-gGlu), des1, 21S, 23Y, 30S, 31G, 33Y]mimylin (peptide)
peptide: {C20 diacid-γGlu}-ASELSTAALGRLSAELHELSTYPRTETGSGSY-NH2
SMILES: CC(C)C[C@H](NC(=O)[C@H](C)NC(=O)[C@H](C)NC(=O)[C@@H](NC(=O)[C@H](CO)NC(=O)[C@H](CC(C)C)NC(=O)[C@H](CCC(=O)O)NC(=O)[C@H](CO)NC(=O)[C@H](C)NC(=O)CC[C@H](NC(=O)CCCCCCCCCCCCCCCCCCC(=O)O)C(=O)O)[C@@H](C)O)C(=O)NCC(=O)N[C@@H](CCCNC(=N)N)C(=O)N[C@@H](CC(C)C)C(=O)N[C@@H](CO)C(=O)N[C@@H](C)C(=O)N[C@@H](CCC(=O)O)C(=O)N[C@@H](CC(C)C)C(=O)N[C@@H](Cc1c[nH]cn1)C(=O)N[C@@H](CCC(=O)O)C(=O)N[C@@H](CC(C)C)C(=O)N[C@@H](CO)C(=O)N[C@H](C(=O)N[C@@H](Cc1ccc(O)cc1)C(=O)N1CCC[C@H]1C(=O)N[C@@H](CCCNC(=N)N)C(=O)N[C@H](C(=O)N[C@@H](CCC(=O)O)C(=O)N[C@H](C(=O)NCC(=O)N[C@@H](CO)C(=O)NCC(=O)N[C@@H](CO)C(=O)N[C@@H](Cc1ccc(O)cc1)C(N)=O)[C@@H](C)O)[C@@H](C)O)[C@@H](C)O
